Test results published in patent publication US20180155450A1 (Sanofi, published 2018).

B1: CODV-Ig Batch ID 209 (IL4 × IL13 on HC; L1=7, L2=3, L3=2, L4=0) (bispecific antibody)
chain 1: not shown
chain 2: DIVLTQSPASLAVSLGQRATISCRASESVDSYGQSYMHWYQQKAGQPPKLLIYLASNLESGVPARFSGSGSRTDFTLTIDPVQAEDAATYYCQQNAEDSRTFGGGTKLEIKGGGGGGGDIQMTQSPASLSVSVGDTITLTCHASQNIDVWLSWFQQKPGNIPKLLIYKASNLHTGVPSRFSGSGSGTGFTLTISSLQPEDIATYYCQQAHSYPFTFGGGTKLEIKGGGRTVAAPSVFIFPPSDEQLKSGTASVVCLLNNFYPREAKVQWKVDNALQSGNSQESVTEQDSKDSTYSLSSTLTLSKADYEKHKVYACEVTHQGLSSPVTKSFNRGEC
B2: CODV-Ig Batch ID 215 (IL4 × IL13 on HC; L1=7, L2=3, L3=2, L4=2) (bispecific antibody)
chain 1: not shown
chain 2: B1 chain 2
B3: CODV-Ig Batch ID 210 (IL4 × IL13 on HC; L1=7, L2=5, L3=2, L4=0) (bispecific antibody)
heavy: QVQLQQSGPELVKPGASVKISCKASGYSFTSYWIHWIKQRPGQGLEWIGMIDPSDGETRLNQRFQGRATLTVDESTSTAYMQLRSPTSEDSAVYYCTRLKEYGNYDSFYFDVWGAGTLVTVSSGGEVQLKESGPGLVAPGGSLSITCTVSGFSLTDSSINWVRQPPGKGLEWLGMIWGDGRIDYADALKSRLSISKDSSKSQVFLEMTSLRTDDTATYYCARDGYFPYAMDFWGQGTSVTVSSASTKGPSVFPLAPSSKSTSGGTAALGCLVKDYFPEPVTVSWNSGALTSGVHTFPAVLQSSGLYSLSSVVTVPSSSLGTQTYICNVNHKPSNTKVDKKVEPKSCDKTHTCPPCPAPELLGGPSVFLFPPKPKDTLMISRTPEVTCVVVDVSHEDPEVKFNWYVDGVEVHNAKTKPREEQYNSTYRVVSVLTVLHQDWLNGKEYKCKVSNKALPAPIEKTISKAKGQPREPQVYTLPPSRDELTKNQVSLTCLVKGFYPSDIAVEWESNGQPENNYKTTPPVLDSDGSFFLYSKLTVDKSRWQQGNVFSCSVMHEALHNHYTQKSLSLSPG
light: DIVLTQSPASLAVSLGQRATISCRASESVDSYGQSYMHWYQQKAGQPPKLLIYLASNLESGVPARFSGSGSRTDFTLTIDPVQAEDAATYYCQQNAEDSRTFGGGTKLEIKGGGGGGGDIQMTQSPASLSVSVGDTITLTCHASQNIDVWLSWFQQKPGNIPKLLIYKASNLHTGVPSRFSGSGSGTGFTLTISSLQPEDIATYYCQQAHSYPFTFGGGTKLEIKGGGGGRTVAAPSVFIFPPSDEQLKSGTASVVCLLNNFYPREAKVQWKVDNALQSGNSQESVTEQDSKDSTYSLSSTLTLSKADYEKHKVYACEVTHQGLSSPVTKSFNRGEC
notes: IgG1 CODV-Ig, heavy chain as template; L4 = 0 (no linker)
B4: CODV-Ig Batch ID 234 (IL4 × IL13 on HC; L1=7, L2=5, L3=5, L4=0) (bispecific antibody)
heavy: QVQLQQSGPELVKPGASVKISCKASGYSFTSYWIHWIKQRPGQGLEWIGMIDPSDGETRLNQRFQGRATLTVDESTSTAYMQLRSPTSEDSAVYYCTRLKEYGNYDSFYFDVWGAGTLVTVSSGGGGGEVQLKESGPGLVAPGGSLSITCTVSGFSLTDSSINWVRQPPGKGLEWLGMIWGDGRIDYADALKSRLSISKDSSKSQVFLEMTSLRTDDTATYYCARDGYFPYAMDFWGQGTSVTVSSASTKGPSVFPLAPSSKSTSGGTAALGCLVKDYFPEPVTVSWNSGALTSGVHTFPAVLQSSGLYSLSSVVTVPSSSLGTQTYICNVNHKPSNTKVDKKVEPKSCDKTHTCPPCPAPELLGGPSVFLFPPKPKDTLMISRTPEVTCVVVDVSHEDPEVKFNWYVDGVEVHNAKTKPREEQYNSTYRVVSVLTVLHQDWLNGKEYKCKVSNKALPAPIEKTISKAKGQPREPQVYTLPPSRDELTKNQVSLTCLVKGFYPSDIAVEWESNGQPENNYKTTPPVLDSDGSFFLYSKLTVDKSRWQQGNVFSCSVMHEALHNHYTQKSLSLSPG
light: B3 light
notes: as for B3
B5: CODV-Ig Batch ID 216 (IL4 × IL13 on HC; L1=7, L2=5, L3=2, L4=2) (bispecific antibody)
chain 1: not shown
chain 2: B3 light
B6: CODV-Ig Batch ID 204 (IL4 × IL13 on HC; L1=7, L2=5, L3=1, L4=2) (bispecific antibody, IgG1)
heavy: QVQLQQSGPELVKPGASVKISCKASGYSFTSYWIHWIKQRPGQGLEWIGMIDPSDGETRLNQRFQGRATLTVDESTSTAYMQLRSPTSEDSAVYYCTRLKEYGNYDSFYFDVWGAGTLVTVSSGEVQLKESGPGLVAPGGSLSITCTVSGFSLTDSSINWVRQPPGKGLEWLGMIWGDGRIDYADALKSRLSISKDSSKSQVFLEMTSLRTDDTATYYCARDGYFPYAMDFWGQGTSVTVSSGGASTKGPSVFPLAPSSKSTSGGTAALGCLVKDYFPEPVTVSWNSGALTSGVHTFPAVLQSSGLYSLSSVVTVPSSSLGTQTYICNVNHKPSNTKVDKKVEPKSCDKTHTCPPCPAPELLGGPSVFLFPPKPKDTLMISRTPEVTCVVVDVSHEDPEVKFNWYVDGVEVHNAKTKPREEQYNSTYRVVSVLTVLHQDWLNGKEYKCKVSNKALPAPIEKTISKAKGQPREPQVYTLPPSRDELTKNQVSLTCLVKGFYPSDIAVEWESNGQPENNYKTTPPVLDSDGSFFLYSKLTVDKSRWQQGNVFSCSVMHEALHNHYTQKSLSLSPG
light: B3 light
notes: IgG1 CODV-Ig, heavy chain as template
B7: CODV-Ig Batch ID 219 (IL4 × IL13 on HC; L1=3, L2=6, L3=3, L4=0) (bispecific antibody)
chain 1: not shown
chain 2: DIVLTQSPASLAVSLGQRATISCRASESVDSYGQSYMHWYQQKAGQPPKLLIYLASNLESGVPARFSGSGSRTDFTLTIDPVQAEDAATYYCQQNAEDSRTFGGGTKLEIKGGGDIQMTQSPASLSVSVGDTITLTCHASQNIDVWLSWFQQKPGNIPKLLIYKASNLHTGVPSRFSGSGSGTGFTLTISSLQPEDIATYYCQQAHSYPFTFGGGTKLEIKGGGGGGRTVAAPSVFIFPPSDEQLKSGTASVVCLLNNFYPREAKVQWKVDNALQSGNSQESVTEQDSKDSTYSLSSTLTLSKADYEKHKVYACEVTHQGLSSPVTKSFNRGEC
B8: CODV-Ig Batch ID 208 (IL4 × IL13 on HC; L1=5, L2=5, L3=2, L4=0) (bispecific antibody)
heavy: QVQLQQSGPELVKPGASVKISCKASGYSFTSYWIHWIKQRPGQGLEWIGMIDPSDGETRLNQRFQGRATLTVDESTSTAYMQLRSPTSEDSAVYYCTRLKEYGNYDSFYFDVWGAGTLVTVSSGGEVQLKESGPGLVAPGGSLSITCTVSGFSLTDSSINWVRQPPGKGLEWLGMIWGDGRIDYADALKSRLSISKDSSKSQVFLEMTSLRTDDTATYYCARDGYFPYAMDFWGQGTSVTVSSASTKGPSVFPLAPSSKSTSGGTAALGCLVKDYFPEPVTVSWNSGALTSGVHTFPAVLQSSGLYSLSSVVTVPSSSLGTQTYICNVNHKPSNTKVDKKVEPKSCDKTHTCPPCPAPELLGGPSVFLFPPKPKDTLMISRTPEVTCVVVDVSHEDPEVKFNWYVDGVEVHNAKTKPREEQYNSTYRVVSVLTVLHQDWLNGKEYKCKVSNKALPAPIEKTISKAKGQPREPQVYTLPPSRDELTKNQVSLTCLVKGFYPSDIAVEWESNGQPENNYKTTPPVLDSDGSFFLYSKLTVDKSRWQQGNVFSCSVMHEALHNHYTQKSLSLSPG
light: DIVLTQSPASLAVSLGQRATISCRASESVDSYGQSYMHWYQQKAGQPPKLLIYLASNLESGVPARFSGSGSRTDFTLTIDPVQAEDAATYYCQQNAEDSRTFGGGTKLEIKGGGGGDIQMTQSPASLSVSVGDTITLTCHASQNIDVWLSWFQQKPGNIPKLLIYKASNLHTGVPSRFSGSGSGTGFTLTISSLQPEDIATYYCQQAHSYPFTFGGGTKLEIKGGGGGRTVAAPSVFIFPPSDEQLKSGTASVVCLLNNFYPREAKVQWKVDNALQSGNSQESVTEQDSKDSTYSLSSTLTLSKADYEKHKVYACEVTHQGLSSPVTKSFNRGEC
notes: as for B3
B9: CODV-Ig Batch ID 214 (IL4 × IL13 on HC; L1=5, L2=5, L3=2, L4=2) (bispecific antibody)
chain 1: not shown
chain 2: B8 light
B10: CODV-Ig Batch ID 232 (IL4 × IL13 on HC; L1=5, L2=5, L3=5, L4=0) (bispecific antibody)
heavy: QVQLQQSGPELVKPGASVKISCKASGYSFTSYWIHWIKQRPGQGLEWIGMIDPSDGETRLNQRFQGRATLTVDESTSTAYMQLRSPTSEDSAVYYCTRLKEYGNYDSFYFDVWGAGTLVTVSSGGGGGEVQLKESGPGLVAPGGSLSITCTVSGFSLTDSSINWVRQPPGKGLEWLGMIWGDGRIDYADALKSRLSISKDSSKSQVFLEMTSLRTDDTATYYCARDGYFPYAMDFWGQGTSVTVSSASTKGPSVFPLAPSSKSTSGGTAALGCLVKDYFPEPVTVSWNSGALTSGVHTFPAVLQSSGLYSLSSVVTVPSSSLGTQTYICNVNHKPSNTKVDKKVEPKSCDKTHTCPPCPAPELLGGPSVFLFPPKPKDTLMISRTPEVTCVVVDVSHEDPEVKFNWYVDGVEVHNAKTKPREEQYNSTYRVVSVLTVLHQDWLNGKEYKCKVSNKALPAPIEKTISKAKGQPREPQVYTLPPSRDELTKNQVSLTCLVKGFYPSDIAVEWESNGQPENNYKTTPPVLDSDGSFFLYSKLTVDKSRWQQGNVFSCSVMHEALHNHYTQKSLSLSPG
light: B8 light
notes: as for B3
B11: CODV-Ig Batch ID 207 (IL4 × IL13 on HC; L1=5, L2=3, L3=2, L4=0) (bispecific antibody)
chain 1: not shown
chain 2: DIVLTQSPASLAVSLGQRATISCRASESVDSYGQSYMHWYQQKAGQPPKLLIYLASNLESGVPARFSGSGSRTDFTLTIDPVQAEDAATYYCQQNAEDSRTFGGGTKLEIKGGGGGDIQMTQSPASLSVSVGDTITLTCHASQNIDVWLSWFQQKPGNIPKLLIYKASNLHTGVPSRFSGSGSGTGFTLTISSLQPEDIATYYCQQAHSYPFTFGGGTKLEIKGGGRTVAAPSVFIFPPSDEQLKSGTASVVCLLNNFYPREAKVQWKVDNALQSGNSQESVTEQDSKDSTYSLSSTLTLSKADYEKHKVYACEVTHQGLSSPVTKSFNRGEC
B12: CODV-Ig Batch ID 213 (IL4 × IL13 on HC; L1=5, L2=3, L3=2, L4=2) (bispecific antibody)
chain 1: not shown
chain 2: B11 chain 2

Each binder was assayed against T1, recombinant human IL4 (human, UniProt P05112 25-153) (assay: SPR (Biacore 3000), captured CODV-Ig, antigen as analyte;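 further: kd derived from kinetic fits in BIAevaluation 4.1, with signals referenced against a flow cell lacking captured antibody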).
T1 construct: bought; also called Antigen1
T1 sequence (looked up): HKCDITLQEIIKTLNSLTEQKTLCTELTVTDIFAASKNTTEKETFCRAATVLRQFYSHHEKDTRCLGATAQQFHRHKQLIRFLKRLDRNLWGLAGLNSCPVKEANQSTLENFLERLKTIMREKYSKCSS
Description: (§1) Kinetic binding analysis by Biacore was performed as follows. Surface plasmon resonance technology on a Biacore 3000 (GE Healthcare) was used for detailed kinetic characterization of purified antibodies. […] Chip surfaces were regenerated with 10 mM glycine pH 2.5. Kinetic parameters were analyzed and calculated in the BIAevaluation program package v4.1 using a flow cell without captured antibody as a reference.

In order of falling Kd:
1. B5  0.011 nM
2. B8  0.01 nM
3. B9  0.01 nM
4. B7  0.008 nM
5. B10  0.008 nM
6. B1  0.005 nM
7. B12  0.005 nM
8. B2  0.004 nM
9. B3  0.004 nM
10. B4  0.003 nM
11. B6  0.003 nM
12. B11  0.003 nM

Each binder was assayed against T2, recombinant human IL13 (human, UniProt P35225 35-146, limits assumed) in the same assay as above.
T2 construct: bought; also called Antigen2
T2 sequence (P35225 35-146 limits assumed): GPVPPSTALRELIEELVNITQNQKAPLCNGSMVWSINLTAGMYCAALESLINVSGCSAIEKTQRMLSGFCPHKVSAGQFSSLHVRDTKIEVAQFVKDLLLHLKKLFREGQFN
Description: as §1

In order of falling Kd:
1. B7  0.071 nM
2. B9  0.053 nM
3. B2  0.05 nM
4. B1  0.047 nM
5. B5  0.04 nM
6. B11  0.033 nM
7. B12  0.027 nM
